Assay results published in patent US12012446B2, “Epstein-Barr virus antibodies and uses thereof” (priority 2017, dated 2024).
Changes are numbered by the printed parent chain.

B1: HB2: murine anti-EBV gp350 mAb, IgG2a κ; SEQ ID NO: 104 / 105 (antibody, V domains shown)
VH: PELKKPGETVKISCKASGYTFTAYSMHWVKLTPGKGLKWMGWINTKTGEPTYADDFKGRFAFSLETSASTAYLQINNLKNEDTATYFCAPYGYALDYWGQGTSVTVSSAKTTPPSVYPLAPGSAAQTNSMVTLG
VL: AILSASPGEKVTMTCRATSSVNYMHWYQQKPGSSPKPWIYATSNLASGVPARFSGSGSGTSYSLTISRVEAEDAATYYCQQWSSNPPTFGAGTKLELKRADAAPTV
modifications: heavy chain mAb HB2; light chain mAb HB2
B2: HB9: murine anti-EBV gp350 mAb, IgG2a κ; SEQ ID NO: 116 / 117 (antibody, V domains shown)
VH: GGLVKPGGSLKLSCAASGFTFSSYTMSWVRQTPEKRLEWVATISSGGSYIYYPDSVKGRFTISRDNAKNTLYLQMSSLKSEDTAIYYCTREDFYYGSSYGFFDVWGAGTTVTVSSAKTTAPSVYPLAPVCGDTTGSSVTLG
VL: LSLPVSLGDQASISCRSSQSIVHSNGNTYLEWYLQKAGQSPKLLIYKVSNRFSGVPDRFGGSGSGTDFTLKISRVEAEDLGVYYCFQGSHVPYTFGGGTKLEIKRADAAPTV
modifications: heavy chain mAb HB9; light chain mAb HB9
B3: HB22: murine anti-EBV gp350 mAb, IgG1 κ; SEQ ID NO: 130 / 131; non-nAb (antibody, V domains shown)
VH: PGLVAPSQSLSITCTVSGFSLTNYGIHWVRQPPGKGLEWLVVIWSDGSTIYNSALKSRLSISKDNSKSQVFLKMNSLQTDDTAMYYCARNYYGNSYPAWFAYWGQGTLVTVSAAKTTPPSVYPLAPGSAAQTNSMVTLG
VL: B2 VL with A37P, G60S, K71R, Y93W
modifications: heavy chain mAb HB22; light chain mAb HB22
notes: murine anti-EBV gp350 mAb, IgG1 κ; non-nAb
B4: HB17: murine anti-EBV gp350 mAb, IgG2b κ; SEQ ID NO: 126 / 127; non-nAb (antibody, V domains shown)
VH: AELVIPGASVKVSCKASGYTFTSYWIHWVKQWPGQGLEWIGEINPNNGHTNYNEKFKSKATLTVDKSSSTAYMQLSSLTSEDSAVYYCARNLFYYSRPDYWGQGTSVTVSSAKTTPPSVYPLAPGCGDTTGSSVTLG
VL: SSLSASLGDRVTISCRASQDIGNYLNWYQQKPDGTIKLLIYYTSRLHSGVPSRFSGSGSGTDYSLTISNLEEEDIATYFCQQGNTLPPTFGGGTKLEIKRADAAPTV
modifications: heavy chain mAb HB17; light chain mAb HB17
notes: murine anti-EBV gp350 mAb, IgG2b κ; non-nAb
B5: HB3: murine anti-EBV gp350 mAb, IgG2a κ; SEQ ID NO: 106 / 107 (antibody, V domains shown)
VH: AELVRPGASVKLSCKASGYTFASYWMQWVKQWPGQGLEWIGEINPNNGHTNYNERFKNKASLTVDKSSSTAYMQLSSLTSEDSAVYYCARNLYYYGRPDYWGQGTSVTVSSAKTTAPSVYPLAPVCGDTTGSSVTLG
VL: B4 VL
modifications: heavy chain mAb HB3; light chain mAb HB3

Legend:
[1] = target: T1, purified EBV gp350/220 (recombinant EBV gp350 ectodomain) (Epstein-Barr virus, UniProt P03200); assay: Indirect ELISA on recombinant EBV gp350 ectodomain; format: binding; details: purified antibodies 10 μg/ml
T1 construct: purified EBV gp350 ectodomain protein (AA 4-863); purchased Immune Technology Corporation
T1 sequence (P03200 4-863): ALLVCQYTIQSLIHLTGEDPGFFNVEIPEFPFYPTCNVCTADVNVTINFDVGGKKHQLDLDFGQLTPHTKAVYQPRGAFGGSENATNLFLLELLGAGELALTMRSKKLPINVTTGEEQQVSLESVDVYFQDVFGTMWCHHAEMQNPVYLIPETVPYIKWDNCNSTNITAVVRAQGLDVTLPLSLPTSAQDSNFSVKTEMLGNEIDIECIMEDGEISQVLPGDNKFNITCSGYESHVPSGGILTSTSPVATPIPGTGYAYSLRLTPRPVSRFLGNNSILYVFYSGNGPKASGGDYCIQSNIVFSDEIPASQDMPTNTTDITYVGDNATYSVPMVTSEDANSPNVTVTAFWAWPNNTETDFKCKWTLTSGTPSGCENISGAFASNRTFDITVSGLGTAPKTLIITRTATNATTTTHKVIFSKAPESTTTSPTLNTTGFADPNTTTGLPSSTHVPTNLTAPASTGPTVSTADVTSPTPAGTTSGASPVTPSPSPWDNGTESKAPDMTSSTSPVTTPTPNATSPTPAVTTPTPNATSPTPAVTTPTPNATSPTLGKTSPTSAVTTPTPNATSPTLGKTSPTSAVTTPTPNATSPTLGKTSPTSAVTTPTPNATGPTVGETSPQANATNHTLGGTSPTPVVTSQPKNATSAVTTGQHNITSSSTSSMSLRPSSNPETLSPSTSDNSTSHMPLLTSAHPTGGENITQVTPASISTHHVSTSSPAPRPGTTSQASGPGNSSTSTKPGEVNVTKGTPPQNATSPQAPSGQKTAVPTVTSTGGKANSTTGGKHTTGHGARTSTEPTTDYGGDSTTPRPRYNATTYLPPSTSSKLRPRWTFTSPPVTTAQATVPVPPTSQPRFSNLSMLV
Method: Briefly, immunoplates (Costar 3590; Corning Incorporated) were coated with 50 μl of 0.5 μg/ml recombinant EBV gp350 ectodomain (Immune Technology Corporation) diluted in 1× phosphate buffered saline (PBS, pH 7.4) and incubated overnight at 4° C. After washing three times with 1×PBS containing 0.05% (v/v) Tween 20 (washing buffer), plates were blocked with 100 μl washing buffer containing 2% (w/v) bovine serum albumin (BSA) (blocking buffer) then incubated for 1 h at room temperature and washed as above. 100 μl of hybridoma supernatant or 50 μl of 10 μg/ml purified mAbs was added to each well (in triplicate) and incubated for 2 h at room temperature. […] The plates were washed as described above, followed by incubation with 50 μl of goat anti-mouse IgG HRP-conjugated secondary antibody (1:2,000 diluted in 1×PBS) at room temperature for 1 h. The plates were washed again and 100 μl of chromogenic substrate 2,2′-azino-bis (3-ethylbenzothiazoline-6-sulphonic acid) (ABTS, Life Science Technologies) was added. The reaction was stopped using 100 μl of ABTS peroxidase stop solution containing 5% sodium dodecyl sulfate (SDS) in water. The absorbance was read at an optical density of 405 nm using an ELISA reader (Molecular Devices). All experiments were performed in triplicate and confirmed in three independent experiments.
ELISA binding of anti-gp350 and anti-gH/gL to soluble gp350 and gH/gL proteins was performed. Soluble EBV gp350 and gH/gL proteins were used as the target antigen at 0.5 μg/ml. 1× phosphate buffered saline (PBS) was used as negative (not shown) control. Bound antibodies were detected using HRP-conjugated anti-mouse or anti-human IgG (1:2,000).

[2] = target: T2, gp350 protein on gp350 expressing CHO cells (Epstein-Barr virus, UniProt P03200); assay: Flow cytometry of CHO cells stably expressing EBV gp350; format: binding; details: concluded from flow cytometry and immunoblot
T2 construct: stably co-transfected with full-length pCAGGS-gp350/220 and pCI-puro vector; expressed in transfected cells; host or cells: CHO cells
T2 sequence (P03200 whole entry): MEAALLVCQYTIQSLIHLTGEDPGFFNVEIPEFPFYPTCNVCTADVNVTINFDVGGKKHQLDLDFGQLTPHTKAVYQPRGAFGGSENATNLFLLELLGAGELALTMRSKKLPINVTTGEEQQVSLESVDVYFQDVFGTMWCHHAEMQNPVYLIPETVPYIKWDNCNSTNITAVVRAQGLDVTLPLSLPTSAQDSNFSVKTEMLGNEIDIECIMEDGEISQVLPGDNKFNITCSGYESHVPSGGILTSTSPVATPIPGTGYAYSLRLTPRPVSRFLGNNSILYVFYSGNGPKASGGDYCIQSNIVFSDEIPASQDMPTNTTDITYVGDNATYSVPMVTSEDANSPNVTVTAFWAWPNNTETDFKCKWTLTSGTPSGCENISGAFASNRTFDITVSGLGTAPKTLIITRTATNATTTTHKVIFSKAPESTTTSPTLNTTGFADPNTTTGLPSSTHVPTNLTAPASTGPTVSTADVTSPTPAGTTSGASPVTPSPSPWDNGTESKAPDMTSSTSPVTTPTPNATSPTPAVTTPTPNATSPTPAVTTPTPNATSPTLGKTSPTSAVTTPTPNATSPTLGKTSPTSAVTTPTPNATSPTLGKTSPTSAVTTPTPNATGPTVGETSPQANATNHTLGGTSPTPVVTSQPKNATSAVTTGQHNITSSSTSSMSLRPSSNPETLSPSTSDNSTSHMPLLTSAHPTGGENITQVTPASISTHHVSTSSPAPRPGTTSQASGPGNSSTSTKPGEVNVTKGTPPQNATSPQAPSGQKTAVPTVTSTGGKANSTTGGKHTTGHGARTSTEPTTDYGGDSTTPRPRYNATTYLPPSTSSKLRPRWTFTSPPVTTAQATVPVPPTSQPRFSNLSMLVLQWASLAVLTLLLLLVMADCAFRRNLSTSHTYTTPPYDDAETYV
Method: To assess the ability of purified anti-gp350 mAb to detect surface expression of EBV gp350 protein by flow cytometry, CHO cells that stably express EBV gp350 were harvested and stained with purified anti-gp350 (10 μg/ml), followed by AF488 goat anti-mouse IgG secondary antibody. Flow cytometric analysis was performed on a C-6 FC (BD Biosciences) and data was analyzed using FlowJo Cytometry Analysis software (FlowJo, LLC) as described (47). All the experiments were independently repeated three times.
These novel antibodies were analyzed by flow cytometric analysis for surface expression of gp350 protein on 10^6 CHO cells transfected with 1 μg of pCAGGS-gp350. gp350 expressing cells were resuspended in PBS, stained with anti-gp350 mAb, which detects the gp350 ED, followed by secondary Ab goat anti-mouse conjugated to AF488. Additionally, western blot analysis was conducted on untransfected and pCAGGS-gp350 transfected CHO lysate. Anti-gp350 mAb 72A1 was used as a positive control (1:100) and anti-gp350 hybridoma clone supernatants were used at 1:50, and anti-mouse secondary antibody was used at 1:2000.
Flow cytometric analysis of gp350 and gH/gL specificity was performed. CHO wild type cells and gp350 or gH/gL-expressing CHO cells were stained with primary antibodies, followed by secondary goat anti-mouse or anti-human conjugated to AF488. Unstained cells and cells stained with secondary goat anti-mouse or anti-human conjugated to AF488 alone, were used as negative controls.

[3] = system: EBV-eGFP infection of Raji cells; assay: EBV neutralization assay in Raji cells; format: cell-based, Epstein-Barr virus; details: for neutralization of EBV in Raji cells (in words): spin-column purified mAbs, 12.5, 25, 50 and 100 μg/ml; for blocking of EBV infection of Raji cells (in words): protein G and size-exclusion chromatography-purified mAbs, 12.5-100 μg/ml
Method: EBV neutralization assay was performed in Raji cells as previously described (47). Briefly, purified individual anti-gp350 mAbs were incubated with purified AGS-EBV-eGFP (titer calculated to infect at least 8% of HEK293 cells seeded in 100 μl of serum-free DMEM) for 2 hours at 37° C. To represent EBV infection of B cells, the pre-incubated anti-gp350 mAbs/AGS-EBV-eGFP were used to infect 5×10^5 Raji cells seeded in a 96-well plate for 2 hours at 37° C. Neutralizing 72A1 and non-neutralizing 2L10 anti-gp350 mAbs served as positive and negative controls, respectively. Infected cells were washed three times with PBS to remove any unbound viruses and antibodies. Washed, infected cells were incubated in 96-well plates at 37° C. for 48 hours post-infection and the number of eGFP+ (infected) cells was determined using flow cytometry. All dilutions were performed in quintuplicate and the assays were repeated three times. Antibody EBV neutralization activity was calculated as: % neutralization=(EBValone−EBVmAb)/(EBValone)×100.
However, this antibody was recently reported to be a mixture of both functional and non-functional antibodies (50). […] The percentage of eGFP+ cells (percent infection) was determined using flow cytometry as described (47). The nAbs 72A1 and E1D1 were used as positive controls, whereas the anti-gp350 non-neutralizing mAb 2L10 and KSHV gH/gL mAb 54A1 were used as negative controls. Because HB4, HB13, HB15, HB16, HB19, HB21, and HB23 were confirmed to be polyclonal based on isotyping and/or sequence data, they were eliminated from further consideration in the neutralization assay. HB18 was not used in neutralization experiments because it was identical to HB8.
The purified eGFP-tagged-EBV was titered in Raji cells to determine percent EBV infection using a range of volumes (50-250 μl) (FIG. 5A). Then initial neutralization of EBV was conducted in Raji cells using purified mAbs at various concentrations (12.5, 25, 50, and 100 μg/ml).
EBV-eGFP+ cells were enumerated using flow cytometry.

[4] = target: T3, EBV gp350 stably expressed on CHO cells (Epstein-Barr virus, UniProt P03200); assay: Epitope mapping by competitive cell binding assay with biotinylated mAbs; details: for % inhibition of biotinylated nAbs (biotinylated m72A1): biotinylated m72A1 1 μg/ml
T3 construct: stably co-transfected with full-length pCAGGS-gp350/220 and pCI-puro vector; expressed in transfected cells; host or cells: CHO cells
T3 sequence (P03200 whole entry): as above
Method: To evaluate conformation epitope mapping of the selected mAbs, competitive binding assays were conducted using biotinylated mAbs. A one-step antibody biotinylation kit (MACS Miltenyi Biotec) was used to biotinylate the mAbs. Approximately 1×10^5 CHO cells that stably expressed EBV gp350 were incubated for 2 hours with serially diluted ([…]) unlabeled competitor mAbs and non-specific anti-KSHV gH/gL 54A1 mAb. After being washed with PBS, the cells were incubated for 2 hours in the presence of 1 μg/ml biotinylated mAbs. To determine maximum binding, cells in which the biotinylated mAb was added in the absence of unlabeled mAbs were included in the assay. Cells were washed with PBS, followed by incubation for 1 hour with anti-biotin AF488 at a dilution of 1:500. After the final wash in PBS, cells were resuspended in 1% paraformaldehyde and analyzed by flow cytometry as described above. Percentage of inhibition was calculated as: 100−[(% fluorescent cells with competitor mAb/% fluorescent cells without competitor mAb)×100]. The complete prevention of binding of a biotinylated mAb by its unlabeled counterpart was used as a validation of the assay, as previously described (84).
At least seven unique CD21 binding epitopes on EBV gp350 have been predicted (Table 3).

Row | Molecule | ELISA binding to purified EBV gp350/220 [1] | type of gp350 epitope recognized (linear / conformational) [2] | neutralization of EBV in Raji cells (in words) [3] | blocking of EBV infection of Raji cells (in words) [3] | % inhibition of biotinylated nAbs (biotinylated m72A1) ([4]; unlabeled mAb 67.5 μg/ml) | % inhibition of biotinylated nAbs (biotinylated m72A1) ([4]; unlabeled mAb 125 μg/ml) | % inhibition of biotinylated nAbs (biotinylated m72A1) ([4]; unlabeled mAb 250 μg/ml) | % inhibition of biotinylated nAbs (biotinylated m72A1) ([4]; unlabeled mAb 500 μg/ml) | competitive binding versus m72A1 and h72A1 (in words) ([4]; biotinylated antibodies)
1 | B1 | + | only recognized conformational epitopes | failed to neutralize EBV infection |  |  |  |  |  | 
2 | B2 | + | recognized both linear and conformational epitopes | failed to neutralize EBV infection |  |  |  |  |  | 
3 | B3 | + |  | dose-dependent neutralization | Neither HB17, HB22, nor 54A1 blocked EBV infection | 9% | 16% | 3% | 10% | 
4 | B4 | + | recognized both linear and conformational epitopes | failed to neutralize EBV infection | Neither HB17, HB22, nor 54A1 blocked EBV infection |  |  |  |  | little to no competitive binding
5 | B5 | + | only recognized conformational epitopes | failed to neutralize EBV infection |  |  |  |  |  | 
